The supplement of paper PMC9112550, “Optimization of the antimicrobial peptide Bac7 by deep mutational scanning” (BMC Biology, 2022)

System: Escherichia coli TOP10
Experiment: shrunken log2 fold change of peptide-encoding DNA abundance (4.5 h post-induction vs induction); higher = less antimicrobial activity (less host growth inhibition)
Settings: time post-induction: 4.5 h; library: site-saturation at positions 5, 18, 19, 20
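Further: peptides expressed intracellularly from a pBAD plasmid library in pooled LB shake-flask culture, induced with 0.3% L-arabinose, DNA abundance read by NGS, three biological replicates, DESeq2 with apeglm shrinkage.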

Sequence: RRIRARPPRLPRPRPRPHRYPRP
- shrunken log2 fold change: -0.147

Sequence: RRIRARPPRLPRPRPRPHSGPRP
- shrunken log2 fold change: -0.0576

Sequence: RRIRARPPRLPRPRPRPHTLPRP
- shrunken log2 fold change: -0.213

Sequence: RRIRARPPRLPRPRPRPHVKPRP
- shrunken log2 fold change: -0.289

Sequence: RRIRARPPRLPRPRPRPHVRPRP
- shrunken log2 fold change: -0.0112

Sequence: RRIRARPPRLPRPRPRPHWNPRP
- shrunken log2 fold change: -0.0187

Sequence: RRIRARPPRLPRPRPRPIAAPRP
- shrunken log2 fold change: 0.925

Sequence: RRIRARPPRLPRPRPRPIAEPRP
- shrunken log2 fold change: 0.42

Sequence: RRIRARPPRLPRPRPRPIAPPRP
- shrunken log2 fold change: 0.53

Sequence: RRIRARPPRLPRPRPRPICKPRP
- shrunken log2 fold change: -0.159

Sequence: RRIRARPPRLPRPRPRPICWPRP
- shrunken log2 fold change: 0.231

Sequence: RRIRARPPRLPRPRPRPIDNPRP
- shrunken log2 fold change: -0.0987

Sequence: RRIRARPPRLPRPRPRPIELPRP
- shrunken log2 fold change: 0.00186

Sequence: RRIRARPPRLPRPRPRPIFDPRP
- shrunken log2 fold change: 0.0844

Sequence: RRIRARPPRLPRPRPRPIGTPRP
- shrunken log2 fold change: 0.0903

Sequence: RRIRARPPRLPRPRPRPIHSPRP
- shrunken log2 fold change: -0.184

Sequence: RRIRARPPRLPRPRPRPIIKPRP
- shrunken log2 fold change: -0.09

Sequence: RRIRARPPRLPRPRPRPILDPRP
- shrunken log2 fold change: 0.229

Sequence: RRIRARPPRLPRPRPRPILPPRP
- shrunken log2 fold change: 0.0507

Sequence: RRIRARPPRLPRPRPRPIMQPRP
- shrunken log2 fold change: -0.0531

Sequence: RRIRARPPRLPRPRPRPIMRPRP
- shrunken log2 fold change: 0.491

Sequence: RRIRARPPRLPRPRPRPINHPRP
- shrunken log2 fold change: -0.376

Sequence: RRIRARPPRLPRPRPRPINSPRP
- shrunken log2 fold change: -0.213

Sequence: RRIRARPPRLPRPRPRPIPRPRP
- shrunken log2 fold change: 0.526

Sequence: RRIRARPPRLPRPRPRPIQKPRP
- shrunken log2 fold change: 0.00369

Sequence: RRIRARPPRLPRPRPRPIQYPRP
- shrunken log2 fold change: -0.463

Sequence: RRIRARPPRLPRPRPRPIRAPRP
- shrunken log2 fold change: 0.242

Sequence: RRIRARPPRLPRPRPRPIRPPRP
- shrunken log2 fold change: 0.237

Sequence: RRIRARPPRLPRPRPRPISGPRP
- shrunken log2 fold change: -0.00122

Sequence: RRIRARPPRLPRPRPRPITGPRP
- shrunken log2 fold change: -0.00407

Sequence: RRIRARPPRLPRPRPRPITPPRP
- shrunken log2 fold change: -0.0533

Sequence: RRIRARPPRLPRPRPRPIVKPRP
- shrunken log2 fold change: 0.0456

Sequence: RRIRARPPRLPRPRPRPIVLPRP
- shrunken log2 fold change: -0.121

Sequence: RRIRARPPRLPRPRPRPIYPPRP
- shrunken log2 fold change: -0.387

Sequence: RRIRARPPRLPRPRPRPKAFPRP
- shrunken log2 fold change: 0.269

Sequence: RRIRARPPRLPRPRPRPKDKPRP
- shrunken log2 fold change: 0.0564

Sequence: RRIRARPPRLPRPRPRPKDMPRP
- shrunken log2 fold change: 0.263

Sequence: RRIRARPPRLPRPRPRPKDTPRP
- shrunken log2 fold change: 0.293

Sequence: RRIRARPPRLPRPRPRPKFSPRP
- shrunken log2 fold change: 0.173

Sequence: RRIRARPPRLPRPRPRPKGPPRP
- shrunken log2 fold change: 0.212

Sequence: RRIRARPPRLPRPRPRPKHFPRP
- shrunken log2 fold change: 4.03

Sequence: RRIRARPPRLPRPRPRPKICPRP
- shrunken log2 fold change: 0.0997

Sequence: RRIRARPPRLPRPRPRPKIMPRP
- shrunken log2 fold change: -0.0664

Sequence: RRIRARPPRLPRPRPRPKIYPRP
- shrunken log2 fold change: -0.161

Sequence: RRIRARPPRLPRPRPRPKKPPRP
- shrunken log2 fold change: 0.0922

Sequence: RRIRARPPRLPRPRPRPKLCPRP
- shrunken log2 fold change: 0.225

Sequence: RRIRARPPRLPRPRPRPKLDPRP
- shrunken log2 fold change: 0.655

Sequence: RRIRARPPRLPRPRPRPKMAPRP
- shrunken log2 fold change: 0.291

Sequence: RRIRARPPRLPRPRPRPKNNPRP
- shrunken log2 fold change: -0.0541

Sequence: RRIRARPPRLPRPRPRPKPDPRP
- shrunken log2 fold change: 0.582

Sequence: RRIRARPPRLPRPRPRPKPNPRP
- shrunken log2 fold change: 0.736

Sequence: RRIRARPPRLPRPRPRPKQLPRP
- shrunken log2 fold change: 0.155

Sequence: RRIRARPPRLPRPRPRPKRHPRP
- shrunken log2 fold change: 0.511

Sequence: RRIRARPPRLPRPRPRPKSFPRP
- shrunken log2 fold change: 0.0951

Sequence: RRIRARPPRLPRPRPRPKSNPRP
- shrunken log2 fold change: 0.253

Sequence: RRIRARPPRLPRPRPRPKSPPRP
- shrunken log2 fold change: 0.425

Sequence: RRIRARPPRLPRPRPRPKVHPRP
- shrunken log2 fold change: 0.491

Sequence: RRIRARPPRLPRPRPRPKVTPRP
- shrunken log2 fold change: 0.0237

Sequence: RRIRARPPRLPRPRPRPKWFPRP
- shrunken log2 fold change: 0.053

Sequence: RRIRARPPRLPRPRPRPLARPRP
- shrunken log2 fold change: 0.81

Sequence: RRIRARPPRLPRPRPRPLCEPRP
- shrunken log2 fold change: 0.879

Sequence: RRIRARPPRLPRPRPRPLDYPRP
- shrunken log2 fold change: -0.25

Sequence: RRIRARPPRLPRPRPRPLFAPRP
- shrunken log2 fold change: 0.647

Sequence: RRIRARPPRLPRPRPRPLFEPRP
- shrunken log2 fold change: 0.629

Sequence: RRIRARPPRLPRPRPRPLHAPRP
- shrunken log2 fold change: 0.554

Sequence: RRIRARPPRLPRPRPRPLHGPRP
- shrunken log2 fold change: 0.155

Sequence: RRIRARPPRLPRPRPRPLHKPRP
- shrunken log2 fold change: 0.408

Sequence: RRIRARPPRLPRPRPRPLHTPRP
- shrunken log2 fold change: 0.0174

Sequence: RRIRARPPRLPRPRPRPLKNPRP
- shrunken log2 fold change: -0.127

Sequence: RRIRARPPRLPRPRPRPLKRPRP
- shrunken log2 fold change: 0.37

Sequence: RRIRARPPRLPRPRPRPLLWPRP
- shrunken log2 fold change: 1.94

Sequence: RRIRARPPRLPRPRPRPLNAPRP
- shrunken log2 fold change: 0.486

Sequence: RRIRARPPRLPRPRPRPLNEPRP
- shrunken log2 fold change: 0.137

Sequence: RRIRARPPRLPRPRPRPLNHPRP
- shrunken log2 fold change: -0.265

Sequence: RRIRARPPRLPRPRPRPLQFPRP
- shrunken log2 fold change: 0.0375

Sequence: RRIRARPPRLPRPRPRPLRYPRP
- shrunken log2 fold change: -0.00438

Sequence: RRIRARPPRLPRPRPRPLSWPRP
- shrunken log2 fold change: 0.984

Sequence: RRIRARPPRLPRPRPRPLVQPRP
- shrunken log2 fold change: 0.561

Sequence: RRIRARPPRLPRPRPRPLVWPRP
- shrunken log2 fold change: 0.774

Sequence: RRIRARPPRLPRPRPRPLWNPRP
- shrunken log2 fold change: 0.0673

Sequence: RRIRARPPRLPRPRPRPLWRPRP
- shrunken log2 fold change: 0.24

Sequence: RRIRARPPRLPRPRPRPMAIPRP
- shrunken log2 fold change: -0.0621

Sequence: RRIRARPPRLPRPRPRPMAPPRP
- shrunken log2 fold change: 0.0991

Sequence: RRIRARPPRLPRPRPRPMCDPRP
- shrunken log2 fold change: 0.526

Sequence: RRIRARPPRLPRPRPRPMCMPRP
- shrunken log2 fold change: 0.272

Sequence: RRIRARPPRLPRPRPRPMCRPRP
- shrunken log2 fold change: 0.0586

Sequence: RRIRARPPRLPRPRPRPMCYPRP
- shrunken log2 fold change: -0.112

Sequence: RRIRARPPRLPRPRPRPMEEPRP
- shrunken log2 fold change: -0.0115

Sequence: RRIRARPPRLPRPRPRPMEIPRP
- shrunken log2 fold change: 0.146

Sequence: RRIRARPPRLPRPRPRPMETPRP
- shrunken log2 fold change: -0.0508

Sequence: RRIRARPPRLPRPRPRPMFCPRP
- shrunken log2 fold change: 0.211

Sequence: RRIRARPPRLPRPRPRPMFSPRP
- shrunken log2 fold change: -0.142

Sequence: RRIRARPPRLPRPRPRPMFVPRP
- shrunken log2 fold change: -0.134

Sequence: RRIRARPPRLPRPRPRPMGAPRP
- shrunken log2 fold change: 0.572

Sequence: RRIRARPPRLPRPRPRPMGEPRP
- shrunken log2 fold change: 0.1

Sequence: RRIRARPPRLPRPRPRPMGKPRP
- shrunken log2 fold change: 0.472

Sequence: RRIRARPPRLPRPRPRPMHNPRP
- shrunken log2 fold change: -0.00444

Sequence: RRIRARPPRLPRPRPRPMILPRP
- shrunken log2 fold change: 0.0109

Sequence: RRIRARPPRLPRPRPRPMIVPRP
- shrunken log2 fold change: -0.262

Sequence: RRIRARPPRLPRPRPRPMKGPRP
- shrunken log2 fold change: -0.132

Sequence: RRIRARPPRLPRPRPRPMKNPRP
- shrunken log2 fold change: 0.0488

Sequence: RRIRARPPRLPRPRPRPMKPPRP
- shrunken log2 fold change: 0.101

Sequence: RRIRARPPRLPRPRPRPMMEPRP
- shrunken log2 fold change: 0.0919

Sequence: RRIRARPPRLPRPRPRPMQFPRP
- shrunken log2 fold change: 0.091

Sequence: RRIRARPPRLPRPRPRPMRFPRP
- shrunken log2 fold change: 0.869

Sequence: RRIRARPPRLPRPRPRPMRTPRP
- shrunken log2 fold change: 0.802

Sequence: RRIRARPPRLPRPRPRPMSLPRP
- shrunken log2 fold change: -0.229

Sequence: RRIRARPPRLPRPRPRPMTKPRP
- shrunken log2 fold change: 0.248

Sequence: RRIRARPPRLPRPRPRPMVPPRP
- shrunken log2 fold change: 0.0221

Sequence: RRIRARPPRLPRPRPRPMWGPRP
- shrunken log2 fold change: 0.115

Sequence: RRIRARPPRLPRPRPRPMWLPRP
- shrunken log2 fold change: 0.0028

Sequence: RRIRARPPRLPRPRPRPMYLPRP
- shrunken log2 fold change: -0.506

Sequence: RRIRARPPRLPRPRPRPMYRPRP
- shrunken log2 fold change: -0.0452

Sequence: RRIRARPPRLPRPRPRPNALPRP
- shrunken log2 fold change: 0.296

Sequence: RRIRARPPRLPRPRPRPNCRPRP
- shrunken log2 fold change: 0.0806

Sequence: RRIRARPPRLPRPRPRPNDKPRP
- shrunken log2 fold change: -0.129

Sequence: RRIRARPPRLPRPRPRPNDTPRP
- shrunken log2 fold change: -0.283

Sequence: RRIRARPPRLPRPRPRPNFIPRP
- shrunken log2 fold change: -0.521

Sequence: RRIRARPPRLPRPRPRPNHGPRP
- shrunken log2 fold change: -0.0204

Sequence: RRIRARPPRLPRPRPRPNHQPRP
- shrunken log2 fold change: 0.243

Sequence: RRIRARPPRLPRPRPRPNHVPRP
- shrunken log2 fold change: -0.31

Sequence: RRIRARPPRLPRPRPRPNLAPRP
- shrunken log2 fold change: -0.179

Sequence: RRIRARPPRLPRPRPRPNLPPRP
- shrunken log2 fold change: 0.158

Sequence: RRIRARPPRLPRPRPRPNMAPRP
- shrunken log2 fold change: 0.114

Sequence: RRIRARPPRLPRPRPRPNMGPRP
- shrunken log2 fold change: 0.137

Sequence: RRIRARPPRLPRPRPRPNPKPRP
- shrunken log2 fold change: 0.372

Sequence: RRIRARPPRLPRPRPRPNQDPRP
- shrunken log2 fold change: 0.116

Sequence: RRIRARPPRLPRPRPRPNQTPRP
- shrunken log2 fold change: 0.064

Sequence: RRIRARPPRLPRPRPRPNRHPRP
- shrunken log2 fold change: 0.0991

Sequence: RRIRARPPRLPRPRPRPPAPPRP
- shrunken log2 fold change: 1.19

Sequence: RRIRARPPRLPRPRPRPPCCPRP
- shrunken log2 fold change: 0.571

Sequence: RRIRARPPRLPRPRPRPPDIPRP
- shrunken log2 fold change: 0.289

Sequence: RRIRARPPRLPRPRPRPPDTPRP
- shrunken log2 fold change: 0.764

Sequence: RRIRARPPRLPRPRPRPPDVPRP
- shrunken log2 fold change: 0.655

Sequence: RRIRARPPRLPRPRPRPPFFPRP
- shrunken log2 fold change: 0.603

Sequence: RRIRARPPRLPRPRPRPPFKPRP
- shrunken log2 fold change: 0.368

Sequence: RRIRARPPRLPRPRPRPPGTPRP
- shrunken log2 fold change: 0.898

Sequence: RRIRARPPRLPRPRPRPPHSPRP
- shrunken log2 fold change: 0.902

Sequence: RRIRARPPRLPRPRPRPPKRPRP
- shrunken log2 fold change: 0.485

Sequence: RRIRARPPRLPRPRPRPPNFPRP
- shrunken log2 fold change: -0.0624

Sequence: RRIRARPPRLPRPRPRPPPQPRP
- shrunken log2 fold change: 1.31

Sequence: RRIRARPPRLPRPRPRPPQIPRP
- shrunken log2 fold change: 0.599

Sequence: RRIRARPPRLPRPRPRPPQVPRP
- shrunken log2 fold change: 0.162

Sequence: RRIRARPPRLPRPRPRPPRSPRP
- shrunken log2 fold change: 1.12

Sequence: RRIRARPPRLPRPRPRPPSIPRP
- shrunken log2 fold change: -0.108

Sequence: RRIRARPPRLPRPRPRPPTRPRP
- shrunken log2 fold change: 1.29

Sequence: RRIRARPPRLPRPRPRPPVIPRP
- shrunken log2 fold change: 0.0687

Sequence: RRIRARPPRLPRPRPRPPVSPRP
- shrunken log2 fold change: 0.554

Sequence: RRIRARPPRLPRPRPRPQALPRP
- shrunken log2 fold change: 0.274

Sequence: RRIRARPPRLPRPRPRPQAVPRP
- shrunken log2 fold change: 0.0772
